Holding throughout (details): both partners purified
The target of test [1] is T1, talin1 R7R8 (mouse, UniProt P26039 1357-1659).
T1 construct: talin1 rod domains R7R8, mouse, UniProt P26039, residues 1357-1659; Expressed from pET151; His-tag removed with AcTEV protease; 15N-labelled for NMR; also called talin R7R8
Description: NMR titration; 15N-HSQC of 15N-labelled protein at 150 µM with peptide added (1:0.5 to 1:5 molar ratios); 12 mM NaH2PO4, 6 mM Na2HPO4, pH 6.5, 50 mM NaCl, 2 mM DTT, 5% D2O, 298K.

The target of another test is T2, talin1 R8 (mouse, UniProt P26039 1461-1580).
T2 construct: talin1 rod domain R8, mouse, UniProt P26039, residues 1461-1580; Expressed from pET151; His-tag removed with AcTEV protease; 15N-labelled for NMR; also called talin R8; R8 rod domain of talin
The test is described as above.

The target of test [2] is T1, talin1 R7R8. Description: fluorescence polarisation; dye-labelled peptide against a twofold serial dilution of the protein in PBS (10 mM Na2HPO4, 1.8 mM KH2PO4, pH 7.4, 137 mM NaCl, 2.7 mM KCl), 25°C; one-site total binding fit; triplicate. On the technique in general: Polarisation of emitted light reports the rotation of a fluorescent probe.
Test [3] addresses T3, PSD-95 PDZ2 domain (human, UniProt P78352 155-249).
T3 construct: PSD-95 (postsynaptic density protein 95) PDZ2, human, UniProt P78352, residues 155-249; codon optimised synthetic gene; Expressed from pET151; His-tag removed with AcTEV protease; 15N-labelled for NMR; also called PDZ2 of PSD-95
Description: NMR titration; 15N-HSQC of 15N-labelled protein at 150 µM with peptide added (1:0.5 to 1:5 molar ratios); 12 mM NaH2PO4, 6 mM Na2HPO4, pH 6.5, 50 mM NaCl, 2 mM DTT, 5% D2O, 298K.

The target of test [4] is T4, SHANK2 PDZ domain (mouse, UniProt Q80Z38 247-340).
T4 construct: SHANK2 PDZ domain, mouse, UniProt Q80Z38, residues 247-340; Expressed from pET151; His-tag removed with AcTEV protease; 15N-labelled for NMR
T4 sequence (looked up): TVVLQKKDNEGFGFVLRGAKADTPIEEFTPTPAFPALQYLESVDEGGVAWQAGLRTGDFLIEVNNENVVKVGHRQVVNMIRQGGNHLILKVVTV
Described as above.

The target of test [5] is T5, PSD-95 PDZ3 domain (human, UniProt P78352 302-402).
T5 construct: PSD-95 (postsynaptic density protein 95) PDZ3, human, UniProt P78352, residues 302-402; codon optimised synthetic gene; Expressed from pET151; His-tag removed with AcTEV protease; 15N-labelled for NMR; also called PDZ3 of PSD-95
The test is described as above.

Test [6] addresses T6, SHANK1 PDZ domain (mouse, UniProt D3YZU1 654-762).
T6 construct: SHANK1 PDZ domain, mouse, UniProt D3YZU1, residues 654-762; Expressed from pET151; His-tag removed with AcTEV protease; 15N-labelled for NMR
T6 sequence (looked up): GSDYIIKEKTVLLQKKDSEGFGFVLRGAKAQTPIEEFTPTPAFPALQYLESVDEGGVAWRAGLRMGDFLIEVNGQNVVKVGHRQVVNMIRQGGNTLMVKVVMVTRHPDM
The test is described as above.

Test [7] has as its target T3, PSD-95 PDZ2 domain. Description: fluorescence polarisation; dye-labelled peptide against a twofold serial dilution of the protein in PBS (10 mM Na2HPO4, 1.8 mM KH2PO4, pH 7.4, 137 mM NaCl, 2.7 mM KCl), 25°C; one-site total binding fit; triplicate.
In the next test the target is T7, SHANK3 PDZ domain (mouse, UniProt Q4ACU6 570-664).
T7 construct: SHANK3 PDZ domain, mouse, UniProt Q4ACU6, residues 570-664; Expressed from pET151; His-tag removed with AcTEV protease
T7 sequence (looked up): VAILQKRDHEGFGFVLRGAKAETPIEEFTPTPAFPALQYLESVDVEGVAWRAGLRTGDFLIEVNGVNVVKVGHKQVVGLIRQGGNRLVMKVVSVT
The test is described as above.

For test [8], the target named is T4, SHANK2 PDZ domain. The test is described as above.
Test [9] concerns the target T5, PSD-95 PDZ3 domain. Described as above.
The target of test [10] is T6, SHANK1 PDZ domain. The description is as above.

“And” between values parts separate entries of the source, which are not always exact repeats. Equal entries are not always repeated. Where no end group is shown, it is not given here. maleimide‑fluorescein = Maleimide-fluorescein dye, coupled to a cysteine thiol

One may read the Kd as a measure of binding affinity in units of concentration. Read a low Kd as a tighter complex.

T3 sequence (P78352 155-249): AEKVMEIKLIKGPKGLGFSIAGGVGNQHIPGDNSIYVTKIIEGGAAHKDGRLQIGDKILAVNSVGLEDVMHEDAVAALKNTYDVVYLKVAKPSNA
T5 sequence (P78352 302-402): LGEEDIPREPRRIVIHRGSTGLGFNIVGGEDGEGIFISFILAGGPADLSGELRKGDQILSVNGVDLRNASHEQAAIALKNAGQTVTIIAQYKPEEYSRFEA
T1 sequence (P26039 1357-1659): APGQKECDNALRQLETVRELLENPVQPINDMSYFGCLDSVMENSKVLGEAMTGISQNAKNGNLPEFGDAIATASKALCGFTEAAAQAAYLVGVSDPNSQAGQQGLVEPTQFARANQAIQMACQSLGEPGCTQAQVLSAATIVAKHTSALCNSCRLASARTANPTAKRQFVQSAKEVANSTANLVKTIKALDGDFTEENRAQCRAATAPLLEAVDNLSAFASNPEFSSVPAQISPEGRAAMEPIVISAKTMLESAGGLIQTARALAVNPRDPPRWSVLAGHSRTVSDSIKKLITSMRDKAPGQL
T2 sequence (P26039 1461-1580): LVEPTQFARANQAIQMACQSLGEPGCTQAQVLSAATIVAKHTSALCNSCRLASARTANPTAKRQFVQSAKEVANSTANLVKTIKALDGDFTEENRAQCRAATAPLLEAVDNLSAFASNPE

B1: CDKL5^213-234 peptide (NMR) (peptide)
peptide: CGESEIDQLFTIQKVLGPLPSEQ
notes: single non-native N-terminal cysteine with which the synthetic peptides were designed; source: synthetic peptide (GLBiochem, Shanghai)
Consider B1, for which the binding result with talin1 R7R8 [1] and with talin1 R8 was “binds” throughout.

B2: CDKL5^213-234 peptide, dye-labelled for FP (peptide)
peptide: C(maleimide‑fluorescein)GESEIDQLFTIQKVLGPLPSEQ
notes: single non-native N-terminal cysteine for coupling the dye; source: synthetic peptide (GLBiochem, Shanghai)
On to B2, for which the “fold weaker affinity than CDK1^206-223 with talin1 R7R8” value with talin1 R7R8 [2] came to 2.5 fold.

B3: CDKL5-1^941-960 peptide, unlabelled (peptide)
peptide: CYNRTNRSRMPNLNDLKETAL
notes: single non-native N-terminal cysteine with which the synthetic peptides were designed; ends in -ETAL (957-960); Used unlabelled in NMR; also called CDKL5-1 C-terminal tail peptide; CDKL5-1 peptide; source: synthetic peptide (GLBiochem, Shanghai)
Consider B3, for which the binding result in the test with PSD-95 PDZ2 domain [3], in the test with SHANK2 PDZ domain [4], in the test with PSD-95 PDZ3 domain [5] and in the test with SHANK1 PDZ domain [6] was “binds” throughout.

B4: CDKL5-1^941-960 peptide, fluorescein-labelled (peptide)
peptide: C(maleimide‑fluorescein)YNRTNRSRMPNLNDLKETAL
notes: single non-native N-terminal cysteine for coupling the dye; ends in -ETAL (957-960); also called CDKL5-1 C-terminal tail peptide; CDKL5 isoform 1 C-terminus; source: synthetic peptide (GLBiochem, Shanghai)
As for B4, the Kd with PSD-95 PDZ2 domain [7] was 31.3 µM; in the test with SHANK3 PDZ domain, 8.6 µM; with SHANK2 PDZ domain [8], 5.2 µM; with PSD-95 PDZ3 domain [9], 40.7 µM; with SHANK1 PDZ domain [10], 8.5 µM and 7.6 µM.

The values are drawn from article doi:10.1101/2025.08.27.672337, “Cyclin-dependent kinase-like 5 (CDKL5) binds to talin and is anchored at the postsynaptic density via direct interaction with PDZ domains” (bioRxiv, 2025).
